Changes are numbered by the printed parent chain. Numbers in names are those of the source. One block for each binder: values may come before it.
Assays:
3xFLAG-FL-NOPCHAP1 = target: T1, 3xFLAG-FL-NOPCHAP1 (human, UniProt Q8N5I9 1-185); test: co-IP
T1 sequence (looked up): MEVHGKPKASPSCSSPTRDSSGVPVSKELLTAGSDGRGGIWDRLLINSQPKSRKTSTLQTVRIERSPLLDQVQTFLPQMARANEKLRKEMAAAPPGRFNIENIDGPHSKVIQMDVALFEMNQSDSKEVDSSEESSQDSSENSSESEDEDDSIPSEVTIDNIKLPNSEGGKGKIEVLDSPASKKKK

3xFLAG-FL-RUVBL2 (WT) = 3xFLAG-FL-RUVBL2 (WT) (mouse, UniProt Q9WTM5 1-463); test: co-IP
3xFLAG-FL-RUVBL1 (WT) = 3xFLAG-FL-RUVBL1 (WT) (mouse, UniProt P60122 1-456); test: co-IP
3xFLAG-FL-RUVBL1 (WT), sequence (P60122 whole entry): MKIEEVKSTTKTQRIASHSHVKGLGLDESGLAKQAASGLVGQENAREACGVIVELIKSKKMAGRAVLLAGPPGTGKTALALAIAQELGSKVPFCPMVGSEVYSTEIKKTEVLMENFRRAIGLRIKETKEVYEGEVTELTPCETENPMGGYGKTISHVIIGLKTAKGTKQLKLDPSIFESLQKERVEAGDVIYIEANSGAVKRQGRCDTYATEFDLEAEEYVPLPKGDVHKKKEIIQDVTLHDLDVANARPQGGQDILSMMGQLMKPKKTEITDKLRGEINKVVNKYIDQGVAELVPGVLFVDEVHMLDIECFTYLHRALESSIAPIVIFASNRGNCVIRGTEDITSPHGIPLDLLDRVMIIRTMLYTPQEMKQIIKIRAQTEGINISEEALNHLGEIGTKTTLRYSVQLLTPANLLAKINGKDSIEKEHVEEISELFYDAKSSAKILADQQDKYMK

RUVBL1/2 WT complex = RUVBL1/2 WT complex ( (human or mouse cDNA cloned), UniProt Q9Y265 1-456; Q9Y230 1-463); test: SPR
RUVBL1/2 WT complex, sequence (Q9Y265 whole entry, one chain of several): as the sequence (P60122 whole entry) above, with V291I counted along it

B1: RL-RUVBL2-E300Q (natural protein, mouse, UniProt Q9WTM5 1-463, looked up)
chain: MATVAATTKVPEIRDVTRIERIGAHSHIRGLGLDDALEPRQASQGMVGQLAARRAAGVVLEMIREGKIAGRAVLIAGQPGTGKTAIAMGMAQALGPDTPFTAIAGSEIFSLEMSKTEALTQAFRRSIGVRIKEETEIIEGEVVEIQIDRPATGTGSKVGKLTLKTTEMETIYDLGTKMIESLTKDKVQAGDVITIDKATGKISKLGRSFTRARDYDAMGSQTKFVQCPDGELQKRKEVVHTVSLHEIDVINSRTQGFLALFSGDTGEIKSEVREQINAKVAEWREEGKAEIIPGVLFIDQVHMLDIESFSFLNRALESDMAPVLIMATNRGITRIRGTSYQSPHGIPIDLLDRLLIVSTSPYSEKDTKQILRIRCEEEDVEMSEDAYTVLTRIGLETSLRYAIQLITAASLVCRKRKGTEVQVDDIKRVYSLFLDESRSTQYMKEYQDAFLFNELKGETMDTS
co-IP efficiency (3xFLAG-FL-NOPCHAP1): 0.35%

B3: RL-NOP58 (natural protein, human, UniProt Q9Y2X3 1-529, looked up)
chain: MLVLFETSVGYAIFKVLNEKKLQEVDSLWKEFETPEKANKIVKLKHFEKFQDTAEALAAFTALMEGKINKQLKKVLKKIVKEAHEPLAVADAKLGGVIKEKLNLSCIHSPVVNELMRGIRSQMDGLIPGVEPREMAAMCLGLAHSLSRYRLKFSADKVDTMIVQAISLLDDLDKELNNYIMRCREWYGWHFPELGKIISDNLTYCKCLQKVGDRKNYASAKLSELLPEEVEAEVKAAAEISMGTEVSEEDICNILHLCTQVIEISEYRTQLYEYLQNRMMAIAPNVTVMVGELVGARLIAHAGSLLNLAKHAASTVQILGAEKALFRALKSRRDTPKYGLIYHASLVGQTSPKHKGKISRMLAAKTVLAIRYDAFGEDSSSAMGVENRAKLEARLRTLEDRGIRKISGTGKALAKTEKYEHKSEVKTYDPSGDSTLPTCSKKRKIEQVDKEDEITEKKAKKAKIKVKVEEEEEEKVAEEEETSVKKKKKRGKKKHIKEEPLSEEEPCTSTAIASPEKKKKKKKKRENED
co-IP efficiency (3xFLAG-FL-NOPCHAP1): 0.18%
fold over the control IP without antibody (3xFLAG-FL-NOPCHAP1): 64 fold
co-IP efficiency (3xFLAG-FL-RUVBL2 (WT)): < 0.1%
co-IP efficiency (3xFLAG-FL-RUVBL1 (WT)): < 0.1%

Second part, the binder after the results:

co-IP efficiency (3xFLAG-FL-NOPCHAP1): 7.5%
B2: RL-RUVBL2-K83M (natural protein, mouse, UniProt Q9WTM5 1-463, looked up)
chain: B1 chain with K83M, Q300E

Kd (RUVBL1/2 WT complex): 1.98 nM
B4: Avi-NOPCHAP1-6xHis, biotinylated (natural protein, human, UniProt Q8N5I9 1-185, looked up)
chain: T1 sequence (looked up)
modifications: biotin (cellular biotinylation by BirA)

From publication PMC7826282 (Nucleic Acids Research, 2020)
